Molecular target: Heteropneustes fossilis hepatic cytosolic arginase (ARG I) (Heteropneustes fossilis (endogenous in liver))
Assay: SEC + other: SDS-PAGE and western blotting; native mass of the purified enzyme by gel filtration on Sephadex G-150 with four standard proteins (75±3 kDa); subunit mass by SDS-PAGE and western blotting (24 kDa); single band on native PAGE

- stoichiometry N: 3
Substance: Heteropneustes fossilis hepatic cytosolic arginase (ARG I) (enzyme)

From article PMC3688715
